Measurements reported in doi:10.1101/2024.07.29.605519.

What was measured:
[1] = target: SCRM KiDoK peptide (Arabidopsis); assay: ITC; as a3, but MPK6ΔNt (29–305) pre-incubated with the small molecule kC9
[2] = target: SCRM KiDoK peptide (Arabidopsis); assay: ITC; Malvern PEAQ-ITC, 25 °C, PBS pH 7.4 with 2% DMSO; SCRM KiDoK peptide with MPK6ΔNt (29–305); without kC9
[3] = target: SCRM KiDoK peptide (Arabidopsis); assay: BLI; as a1, but MPK6 pre-incubated with the small molecule kC9 (MPK6:kC9 1:1.5 in the methods, 1:2 in the legend) as analyte
[4] = target: SCRM KiDoK peptide (Arabidopsis); assay: BLI; Octet Red96; biotinylated SCRM KiDoK peptide (500 nM) loaded on streptavidin probes, MPK6 as analyte (150 nM and two-fold dilutions); 25 °C; 1x PBS, 2 % DMSO, 0.02 % Tween20, 0.1 % BSA; 1:1 model, Kd from steady-state analysis; without kC9

Chain of MPK6ΔNt (29–305) (Q39026 29-305, stated change not applied): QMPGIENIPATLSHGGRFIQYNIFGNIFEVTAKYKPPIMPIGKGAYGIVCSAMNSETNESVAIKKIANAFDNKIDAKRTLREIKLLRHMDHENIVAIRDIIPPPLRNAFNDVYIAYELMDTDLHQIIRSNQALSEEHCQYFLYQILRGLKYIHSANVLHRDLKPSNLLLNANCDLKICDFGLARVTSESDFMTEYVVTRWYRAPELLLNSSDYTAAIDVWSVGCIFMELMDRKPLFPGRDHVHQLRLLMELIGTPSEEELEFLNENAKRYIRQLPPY

## MPK6ΔNt (29–305) (from UniProt Q39026 29-305) (domain or fragment)
[1]
  Kd: 1400 nM
[2]
  Kd: 43.4 nM
[3]
  Kd: 856 nM
[4]
  Kd: 40.1 nM
